As usually defined, the Kd is the equilibrium constant for the complex coming apart.

Assay [1] concerns the target T1, integrin αvβ3 receptor (UniProt P06756 31-992; P05106 27-718).
T1 construct: also called αvβ3 integrin; αvβ3 integrin receptor
Description: ELISA on integrin αvβ3 receptor; paragraph 109 says yCD can not be bound before and after modification.

In assay [2] the target is T2, integrin αvβ3 receptor on cells (HUVEC, U87MG, MCF-7, ES-2-luc) (human, UniProt P06756 31-1048; P05106 27-788).
T2 construct: whole, on cells; HUVEC and U87MG express αvβ3 highly, MCF-7 has low or no expression and ES-2-luc moderate expression; also called integrin αvβ3 on cells; integrin receptor on the cell membrane
Nature of the assay: cell ELISA, HUVEC against MCF-7. For orientation: An ELISA detects its analyte on a solid surface through an enzyme-linked reagent.

Assay [3] deals with T1, integrin αvβ3 receptor. Nature of the assay: ELISA on integrin αvβ3 receptor, anti-His6-HRP detection, curve fit.
Description: The dissociation constant Kd is obtained by prism software with curve fitting method.
Assay [4] concerns the target T1, integrin αvβ3 receptor. Description: ELISA on integrin αvβ3 receptor (repeats Table 14).
For assay [5], the target named is T2, integrin αvβ3 receptor on cells (HUVEC, …). Nature of the assay: cell ELISA on MCF-7 cells (low αvβ3 expression), anti-His-HRP.
Description: (§1) After reacted with anti-His-HRP antibody and TMB substrate, ELISA reader (OD450 nm) is used to detect the amount of recombinant protein bound to the cells, and the binding curve is drawn. The nonlinear curve of the prism software is used to make a diagram and calculate the dissociation constant (Kd).
(§2) The anti-His6-Tag-HRP antibody and TMB show the color reagent to detect the amount of recombinant protein bound to the cell, then the dissociation constant Kd value of the recombinant protein and the integrin αᵥβ₃ receptor is calculated and a binding curve is drawn.
Assay [6] shares this target. Description: cell ELISA on U87MG cells (repeats Table 2).
Assay [7] has the same target. Nature of the assay: cell ELISA on HUVEC cells, anti-His-HRP.
Description: as §1, §2
For assay [8] the target is unchanged. Nature of the assay: cell ELISA on MCF-7 cells (repeats Table 2).
The target of assay [9] is T1, integrin αvβ3 receptor. Nature of the assay: ELISA on integrin αvβ3 receptor, one site-specific binding fit.
Description: The curve and receptor binding ability parameters (see FIG. 19 and Table 14) are fitted by the binding ability of DTPA-modified protein and integrin αᵥβ₃ receptor through the One site-Specific binding formula in the Graph prism program.
In assay [10] the target is T2, integrin αvβ3 receptor on cells (HUVEC, …). Description: cell ELISA, U87MG against MCF-7.
Assay [11] shares this target. Nature of the assay: cell ELISA on U87MG cells, anti-His-HRP.
Description: as §1, §2
Assay [12] has the same target. Nature of the assay: cell-based or functional assay.
Assay [13] shares this target. Description: cell-based or functional assay. The source holds these as a separate data set.
Assay [14] has the same target. Description: cell-based or functional assay. This is another data set of the same source.
For assay [15] the target is unchanged. Description: cell ELISA on HUVEC cells (repeats Table 2).
The target of assay [16] is T1, integrin αvβ3 receptor. Nature of the assay: ELISA on integrin αvβ3 receptor, after simulated labelling and challenge with 10-fold molar excess of EDTA.
The target in assay [17] is T1, integrin αvβ3 receptor. Description: ELISA on integrin αvβ3 receptor, after simulated labelling conditions.
Assay [18] addresses T3, integrin αvβ3 receptor on cells (HUVEC, U87MG, MCF-7, ES-2-luc) (human), P06756.
T3 chain 1: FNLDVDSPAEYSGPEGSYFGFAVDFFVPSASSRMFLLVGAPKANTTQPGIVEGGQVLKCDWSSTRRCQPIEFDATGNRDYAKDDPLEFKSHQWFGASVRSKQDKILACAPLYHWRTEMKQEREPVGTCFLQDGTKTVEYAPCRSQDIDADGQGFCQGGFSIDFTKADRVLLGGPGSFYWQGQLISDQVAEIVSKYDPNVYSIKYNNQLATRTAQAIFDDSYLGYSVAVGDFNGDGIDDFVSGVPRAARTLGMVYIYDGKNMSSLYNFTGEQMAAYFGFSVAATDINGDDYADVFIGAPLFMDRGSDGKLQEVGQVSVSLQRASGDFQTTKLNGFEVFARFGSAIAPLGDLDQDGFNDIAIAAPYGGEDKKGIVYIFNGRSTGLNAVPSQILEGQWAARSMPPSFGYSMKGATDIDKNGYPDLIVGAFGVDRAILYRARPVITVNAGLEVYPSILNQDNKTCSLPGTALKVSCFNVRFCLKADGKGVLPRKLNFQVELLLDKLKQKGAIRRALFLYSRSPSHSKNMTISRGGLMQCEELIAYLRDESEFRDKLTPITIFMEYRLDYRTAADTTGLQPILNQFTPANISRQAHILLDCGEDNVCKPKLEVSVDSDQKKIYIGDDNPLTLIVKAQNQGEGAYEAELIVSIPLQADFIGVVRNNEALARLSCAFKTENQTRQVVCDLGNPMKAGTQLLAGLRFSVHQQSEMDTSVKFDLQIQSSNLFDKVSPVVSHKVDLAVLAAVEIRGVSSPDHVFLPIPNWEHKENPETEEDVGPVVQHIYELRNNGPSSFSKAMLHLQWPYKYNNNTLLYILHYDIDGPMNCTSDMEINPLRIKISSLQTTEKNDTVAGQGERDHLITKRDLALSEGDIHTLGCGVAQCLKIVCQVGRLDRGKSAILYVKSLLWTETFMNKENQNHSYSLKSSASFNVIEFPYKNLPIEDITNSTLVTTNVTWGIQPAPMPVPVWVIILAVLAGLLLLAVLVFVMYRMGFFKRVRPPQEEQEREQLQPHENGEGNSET
T3 chain 2: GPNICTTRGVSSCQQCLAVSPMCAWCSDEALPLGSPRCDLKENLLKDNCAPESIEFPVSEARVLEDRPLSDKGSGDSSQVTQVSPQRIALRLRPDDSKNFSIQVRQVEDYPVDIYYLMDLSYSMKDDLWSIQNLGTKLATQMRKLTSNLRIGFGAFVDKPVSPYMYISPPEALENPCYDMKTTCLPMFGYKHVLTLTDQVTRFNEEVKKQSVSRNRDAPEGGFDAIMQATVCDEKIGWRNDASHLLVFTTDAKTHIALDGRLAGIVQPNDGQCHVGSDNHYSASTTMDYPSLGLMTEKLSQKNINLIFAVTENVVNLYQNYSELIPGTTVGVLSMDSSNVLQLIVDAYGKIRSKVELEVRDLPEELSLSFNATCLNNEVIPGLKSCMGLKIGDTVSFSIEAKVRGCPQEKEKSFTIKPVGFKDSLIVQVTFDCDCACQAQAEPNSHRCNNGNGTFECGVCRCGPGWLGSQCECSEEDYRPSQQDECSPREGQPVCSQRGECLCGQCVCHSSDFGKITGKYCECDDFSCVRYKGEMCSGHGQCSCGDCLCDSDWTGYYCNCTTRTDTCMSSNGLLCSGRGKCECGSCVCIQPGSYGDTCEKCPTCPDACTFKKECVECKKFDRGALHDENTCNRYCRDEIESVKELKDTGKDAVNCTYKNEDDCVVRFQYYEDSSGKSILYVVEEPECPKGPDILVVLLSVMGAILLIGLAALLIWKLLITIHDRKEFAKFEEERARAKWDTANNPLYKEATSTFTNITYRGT
Nature of the assay: competitive cell uptake on HUVEC cells, cRGDfk at 1000-fold molar excess; labelled ^111In-DTPA-RGD4C-yCD. The note with it: remark: other sources report otherwise.

The target in assay [19] is T3, integrin αvβ3 receptor on cells (HUVEC, …). Nature of the assay: competitive cell uptake on ES-2-luc cells, cRGDfk at 1000-fold molar excess; labelled competitor ^111In-DTPA-RGD4C-yCD. The note with it: remark: other sources report otherwise.
The target is the same in assay [20]. Description: competitive cell uptake on MCF-7 cells (low αvβ3), cRGDfk at 1000-fold molar excess; labelled ^111In-DTPA-RGD4C-yCD. The note with it: remark: other sources report otherwise.

Ends that are not written are not given here.

B1: DTPA-yCD (enzyme)
chain: MVVTGGMASKWDQKGMDIAYEEAALGYKEGGVPIGGCLINNKDGSVLGRGHNMRFQKGSATLHGEISTLENCGRLEGKVYKDTTLYTTLSPCDMCTGAIIMYGIPRCVVGENVNFKSKGEKYLQTRGHEVVVVDDERCKKIMKQFIDERPQDWFEDIGELEHHHHHH
modifications: DTPA on primary amines, 1.16 DTPA per protein on average
For the molecule B1, in the assay with integrin αvβ3 receptor [1], the binding result was “no binding”.

B2: RGD4C-yCD (other)
chain: MACDCRGDCFCVTGGMASKWDQKGMDIAYEEAALGYKEGGVPIGGCLINNKDGSVLGRGHNMRFQKGSATLHGEISTLENCGRLEGKVYKDTTLYTTLSPCDMCTGAIIMYGIPRCVVGENVNFKSKGEKYLQTRGHEVVVVDDERCKKIMKQFIDERPQDWFEDIGELEHHHHHH
notes: Fusion of the RGD4C peptide with yeast cytosine deaminase, expressed from pET28a(+) in E. coli and detected by its His6 tag; also called RGD4C-yCD recombinant protein
Turning to B2, the “fold cell binding ability against MCF-7” value was roughly 7.7 fold in assay [2] and roughly 6.8 fold in assay [10]. The dissociation constant (Kd) is 0.0395 µM with integrin αvβ3 receptor [3]; 0.0207 µM with integrin αvβ3 receptor [4]; 0.366 µM in [5]; 0.0537 µM in [6]; 0.0475 µM in assay [7]; 0.366 µM in assay [8]. Further, the Kd with integrin αvβ3 receptor [9] was 0.0207 µM; in assay [11], 0.0537 µM; in assay [15] it was 0.0475 µM. For the same molecule, the “protein reaction concentration IC50 of cytotoxic effect, MTT, HUVEC cells, 100 µM 5-FC” value in assay [12] came out at 0.209 µM. Besides, the “protein reaction concentration IC50 of cytotoxic effect, MTT, U87MG cells, 100 µM 5-FC” value in assay [12] came out at 0.177 µM. Moreover, the “IC50 of 5-FC, MTT cytotoxicity, HUVEC cells incubated with 500 nM protein then washed (repeats Table 3)” value in assay [13] was determined as 23.6 µM. Also, the “IC50 of 5-FC, MTT cytotoxicity, MCF-7 cells (low αvβ3) incubated with 500 nM protein then washed (repeats Table 3)” value in assay [13] came out at 5130 µM. For the same molecule, the “IC50 of 5-FC, MTT cytotoxicity, U87MG cells incubated with 500 nM protein then washed (repeats Table 3)” value in assay [13] came out at 37.1 µM. Also, in assay [14], the “IC50 of 5-FC, MTT cytotoxicity, HUVEC cells incubated with 500 nM protein then washed” value came to 23.6 µM. Also, the “IC50 of 5-FC, MTT cytotoxicity, MCF-7 cells (low αvβ3) incubated with 500 nM protein then washed” value in assay [14] amounted to 5130 µM. Also, the “IC50 of 5-FC, MTT cytotoxicity, U87MG cells incubated with 500 nM protein then washed” value in assay [14] was 37.1 µM.

B3: In-DTPA-RGD4C-yCD (other)
chain: MACDCRGDCFCVTGGMASKWDQKGMDIAYEEAALGYKEGGVPIGGCLINNKDGSVLGRGHNMRFQKGSATLHGEISTLENCGRLEGKVYKDTTLYTTLSPCDMCTGAIIMYGIPRCVVGENVNFKSKGEKYLQTRGHEVVVVDDERCKKIMKQFIDERPQDWFEDIGELEHHHHHH
modifications: DTPA on primary amines, loaded with the stable isotope of indium
notes: also called In-DTPA- RGD4C-yCD 10x EDTA
B3: the values for the Kd with integrin αvβ3 receptor [16] and in the assay with integrin αvβ3 receptor [17] were 0.0346 µM and 0.0254 µM, respectively.

B4: cRGDfk (peptide)
peptide: RGDFK
modifications: not fully specified (residues 4, 5); also: prefix c and lower-case f, k not explained
In the case of B4, the percent decrease of uptake in [18] worked out at 65%; in [19], 70%; in assay [20], 45%.

The record behind these values is patent US20190211057A1 (NATIONAL YANG MING UNIVERSITY, published 2019).
